{"source": "the Immune Epitope Database (IEDB)", "key": {"[1]": {"biological_target": "HLA-A*23:01", "test": "IEDB peptide-MHC binding, purified MHC/competitive/radioactivity; filed as Kd, often an IC50 or EC50 that approximates it; ≥ and ≤ were set here for values at or beyond the usual limits of such assays"}, "[2]": {"biological_target": "HLA-A*24:02", "test": "IEDB peptide-MHC binding, purified MHC/competitive/radioactivity; filed as Kd, often an IC50 or EC50 that approximates it; ≥ and ≤ were set here for values at or beyond the usual limits of such assays"}, "[3]": {"biological_target": "HLA-A*29:02", "test": "IEDB peptide-MHC binding, purified MHC/competitive/radioactivity; filed as Kd, often an IC50 or EC50 that approximates it; ≥ and ≤ were set here for values at or beyond the usual limits of such assays"}, "[4]": {"biological_target": "HLA-A*69:01", "test": "IEDB peptide-MHC binding, purified MHC/direct/fluorescence; filed as Kd, often an IC50 or EC50 that approximates it; ≥ and ≤ were set here for values at or beyond the usual limits of such assays", "settings": "source organism: Yellow fever virus"}, "[5]": {"biological_target": "HLA-B*15:01", "test": "IEDB peptide-MHC binding, purified MHC/direct/fluorescence; filed as Kd, often an IC50 or EC50 that approximates it; ≥ and ≤ were set here for values at or beyond the usual limits of such assays"}, "[6]": {"biological_target": "HLA-B*46:01", "test": "IEDB peptide-MHC binding, purified MHC/direct/fluorescence; filed as Kd, often an IC50 or EC50 that approximates it; ≥ and ≤ were set here for values at or beyond the usual limits of such assays"}, "[7]": {"biological_target": "HLA-A*01:01", "test": "IEDB peptide-MHC binding, purified MHC/competitive/radioactivity; filed as Kd, often an IC50 or EC50 that approximates it; ≥ and ≤ were set here for values at or beyond the usual limits of such assays", "settings": "source organism: SARS coronavirus Tor2"}, "[8]": {"biological_target": "HLA-A*26:01", "test": "IEDB peptide-MHC binding, purified MHC/competitive/radioactivity; filed as Kd, often an IC50 or EC50 that approximates it; ≥ and ≤ were set here for values at or beyond the usual limits of such assays", "settings": "source organism: SARS coronavirus Tor2"}, "[9]": {"biological_target": "HLA-A*30:02", "test": "IEDB peptide-MHC binding, purified MHC/competitive/radioactivity; filed as Kd, often an IC50 or EC50 that approximates it; ≥ and ≤ were set here for values at or beyond the usual limits of such assays", "settings": "source organism: SARS coronavirus Tor2"}, "[10]": {"biological_target": "HLA-B*44:02", "test": "IEDB peptide-MHC binding, purified MHC/competitive/radioactivity; filed as Kd, often an IC50 or EC50 that approximates it; ≥ and ≤ were set here for values at or beyond the usual limits of such assays"}, "[11]": {"biological_target": "HLA-B*44:03", "test": "IEDB peptide-MHC binding, purified MHC/competitive/radioactivity; filed as Kd, often an IC50 or EC50 that approximates it; ≥ and ≤ were set here for values at or beyond the usual limits of such assays"}, "[12]": {"biological_target": "HLA-B*07:02", "test": "IEDB peptide-MHC binding, purified MHC/competitive/radioactivity; filed as Kd, often an IC50 or EC50 that approximates it; ≥ and ≤ were set here for values at or beyond the usual limits of such assays"}, "[13]": {"biological_target": "HLA-A*03:01", "test": "IEDB peptide-MHC binding, purified MHC/competitive/radioactivity; filed as Kd, often an IC50 or EC50 that approximates it; ≥ and ≤ were set here for values at or beyond the usual limits of such assays", "settings": "source organism: Vaccinia virus WR"}, "[14]": {"biological_target": "HLA-A*11:01", "test": "IEDB peptide-MHC binding, purified MHC/competitive/radioactivity; filed as Kd, often an IC50 or EC50 that approximates it; ≥ and ≤ were set here for values at or beyond the usual limits of such assays", "settings": "source organism: Vaccinia virus WR"}, "[15]": {"biological_target": "HLA-A*31:01", "test": "IEDB peptide-MHC binding, purified MHC/competitive/radioactivity; filed as Kd, often an IC50 or EC50 that approximates it; ≥ and ≤ were set here for values at or beyond the usual limits of such assays", "settings": "source organism: Vaccinia virus WR"}, "[16]": {"biological_target": "HLA-A*33:01", "test": "IEDB peptide-MHC binding, purified MHC/competitive/radioactivity; filed as Kd, often an IC50 or EC50 that approximates it; ≥ and ≤ were set here for values at or beyond the usual limits of such assays", "settings": "source organism: Vaccinia virus WR"}, "[17]": {"biological_target": "HLA-A*68:01", "test": "IEDB peptide-MHC binding, purified MHC/competitive/radioactivity; filed as Kd, often an IC50 or EC50 that approximates it; ≥ and ≤ were set here for values at or beyond the usual limits of such assays", "settings": "source organism: Vaccinia virus WR"}, "[18]": {"biological_target": "HLA-B*57:01", "test": "IEDB peptide-MHC binding, purified MHC/direct/fluorescence; filed as Kd, often an IC50 or EC50 that approximates it; ≥ and ≤ were set here for values at or beyond the usual limits of such assays", "settings": "source organism: Burkholderia mallei"}, "[19]": {"biological_target": "HLA-B*58:01", "test": "IEDB peptide-MHC binding, purified MHC/direct/fluorescence; filed as Kd, often an IC50 or EC50 that approximates it; ≥ and ≤ were set here for values at or beyond the usual limits of such assays", "settings": "source organism: Burkholderia mallei"}, "[20]": {"settings": "source organism: Mammarenavirus juninense"}, "[21]": {"settings": "source organism: Yellow fever virus"}, "[22]": {"settings": "source organism: SARS coronavirus Tor2"}, "[23]": {"settings": "source organism: Dengue virus 4 Philippines/H241/1956"}, "[24]": {"settings": "source organism: Yellow fever virus 1899/81"}, "[25]": {"settings": "source organism: Mammarenavirus whitewaterense"}, "[26]": {"settings": "source organism: Dengue virus 1 Brazil/97-11/1997"}}, "data": [{"sequence": "LVIASLPLF", "values": [{"measurement": "Kd", "setting": "[1]; [20]", "value": 19.1, "unit": "nM"}, {"measurement": "Kd", "setting": "[2]; [20]", "value": 484, "unit": "nM"}, {"measurement": "Kd", "setting": "[3]; [20]", "value": 1210, "unit": "nM"}]}, {"sequence": "KMLDPRQGL", "values": [{"measurement": "Kd", "setting": "[4]", "value": "≥ 10000", "unit": "nM"}, {"measurement": "Kd", "setting": "[5]; [21]", "value": 808, "unit": "nM"}, {"measurement": "Kd", "setting": "[6]; [21]", "value": "≥ 20000", "unit": "nM"}]}, {"sequence": "KTIVESCGNY", "values": [{"measurement": "Kd", "setting": "[7]", "value": 240, "unit": "nM"}, {"measurement": "Kd", "setting": "[1]; [22]", "value": "≥ 70000", "unit": "nM"}, {"measurement": "Kd", "setting": "[2]; [22]", "value": "≥ 70300", "unit": "nM"}, {"measurement": "Kd", "setting": "[8]", "value": 1350, "unit": "nM"}, {"measurement": "Kd", "setting": "[3]; [22]", "value": 844, "unit": "nM"}, {"measurement": "Kd", "setting": "[9]", "value": 1.69, "unit": "nM"}]}, {"sequence": "AIAVASGLLW", "values": [{"measurement": "Kd", "setting": "[10]; [23]", "value": 8800, "unit": "nM"}, {"measurement": "Kd", "setting": "[11]; [23]", "value": 908, "unit": "nM"}]}, {"sequence": "GVIMPNGSY", "values": [{"measurement": "Kd", "setting": "[6]; source organism: West Nile virus", "value": 1990, "unit": "nM"}]}, {"sequence": "LPVCAPSSA", "values": [{"measurement": "Kd", "setting": "[12]; source organism: Hepatitis B virus", "value": 115, "unit": "nM"}]}, {"sequence": "ALEVLMSPCR", "values": [{"measurement": "Kd", "setting": "[13]", "value": 328, "unit": "nM"}, {"measurement": "Kd", "setting": "[14]", "value": 6330, "unit": "nM"}, {"measurement": "Kd", "setting": "[3]; source organism: Vaccinia virus WR", "value": "≥ 38500", "unit": "nM"}, {"measurement": "Kd", "setting": "[15]", "value": 42.4, "unit": "nM"}, {"measurement": "Kd", "setting": "[16]", "value": 254, "unit": "nM"}, {"measurement": "Kd", "setting": "[17]", "value": 465, "unit": "nM"}]}, {"sequence": "VYMDAVFEY", "values": [{"measurement": "Kd", "setting": "[5]; [24]", "value": 600, "unit": "nM"}, {"measurement": "Kd", "setting": "[6]; [24]", "value": "≥ 20000", "unit": "nM"}]}, {"sequence": "LAAVSVSPL", "values": [{"measurement": "Kd", "setting": "[12]; source organism: Dengue virus 2 Jamaica/1409/1983", "value": 125, "unit": "nM"}]}, {"sequence": "IDATSTGNY", "values": [{"measurement": "Kd", "setting": "[7]", "value": 3720, "unit": "nM"}, {"measurement": "Kd", "setting": "[1]; [22]", "value": "≥ 77800", "unit": "nM"}, {"measurement": "Kd", "setting": "[2]; [22]", "value": "≥ 73800", "unit": "nM"}, {"measurement": "Kd", "setting": "[8]", "value": 1050, "unit": "nM"}, {"measurement": "Kd", "setting": "[3]; [22]", "value": 447, "unit": "nM"}, {"measurement": "Kd", "setting": "[9]", "value": 8590, "unit": "nM"}]}, {"sequence": "LAASVFFTF", "values": [{"measurement": "Kd", "setting": "[18]", "value": 2140, "unit": "nM"}, {"measurement": "Kd", "setting": "[19]", "value": 203, "unit": "nM"}]}, {"sequence": "LLQFIVFLL", "values": [{"measurement": "Kd", "setting": "[1]; [25]", "value": 18800, "unit": "nM"}, {"measurement": "Kd", "setting": "[2]; [25]", "value": "≥ 77500", "unit": "nM"}, {"measurement": "Kd", "setting": "[3]; [25]", "value": "≥ 23400", "unit": "nM"}]}, {"sequence": "RELKCGSGIF", "values": [{"measurement": "Kd", "setting": "[10]; [26]", "value": 54.8, "unit": "nM"}, {"measurement": "Kd", "setting": "[11]; [26]", "value": 151, "unit": "nM"}]}, {"sequence": "YSNRNRFLY", "values": [{"measurement": "Kd", "setting": "[7]", "value": 2.9, "unit": "nM"}, {"measurement": "Kd", "setting": "[1]; [22]", "value": 5690, "unit": "nM"}, {"measurement": "Kd", "setting": "[2]; [22]", "value": 3040, "unit": "nM"}, {"measurement": "Kd", "setting": "[8]", "value": 1470, "unit": "nM"}, {"measurement": "Kd", "setting": "[3]; [22]", "value": 0.588, "unit": "nM"}, {"measurement": "Kd", "setting": "[9]", "value": 0.453, "unit": "nM"}]}]}
